In PMC2715239:
“And” between values parts separate entries of the source, which are not always exact repeats. Equal values may be shown once.

How the values were obtained:
Assay in all cases: SEC-MALS
[1] = target: full-length Bacillus cereus MCM (BcMCM) (Bacillus cereus)
[2] = target: BcMCM C200 truncation (Bacillus cereus)
[3] = target: BcMCM N399 truncation (Bacillus cereus)

Substance: full-length Bacillus cereus MCM (BcMCM) (enzyme)
- stoichiometry N [1]: 2

Substance: BcMCM C200 truncation (domain or fragment)
- stoichiometry N [2]: 2 and 3 and 4

Substance: BcMCM N399 truncation (domain or fragment)
- stoichiometry N [3]: 2 and 4
